Measurements as given in patent US20200157153.

Target: His-EutM-SpyCatcher (N-His-GS-EutM-GS-SpyCatcher)

B1: SpyTag-AmDH (N-His-thrombin-SpyTag-GS-Ch1-AmDH) (protein)
chain: MGSSHHHHHHSSGLVPRGSHMMGSSGAHIVMVDAYKPTKGSGGSGVDMSLVEKTSIIKDFTLFEKMSEHEQVVFCNDPATGLRAIIAIHDTTLGPALGGCRMQPYNSVEEALEDALRLSKGMTYSCAASDVDFGGGKAVIIGDPQKDKSPELFRAFGQFVDSLGGRFYTGTDMGTNMEDFIHAMKETNCIVGVPEAYGSSGNPSPATAYGVYRGMKAAAKEAFGSDSLEGKVVAVQGVGNVAYHLCRHLHEEGAKLIVTDINKEAVARAVEEFGAKAVDPNDIYGVECDIFAPCALGGIINDQTIPQLKAKVIAGSALNQLKEPRHGDMIHEMGIVYAPDYVINAGGCINVADELYGYNRERAMKKIEQIYDNIEKVFAIAKRDNIPTYVAADRMAEERIETMRKARSQFLQNGHHILSRRRAR
relative activity after 48 hours, 1:6 SpyTag-AmDH:EutM-SpyCatcher: approximately 79% relative activity
